Measurements: US20110318339A1 (FABRUS, published 2011)

Legend:
[1] = target: T1, recombinant human DLL4 (Cat# 1506-D4/CF, R&D Systems) (human, UniProt Q9NR61 27-529); experiment: ELISA, DLL4 coated, Fab 25 nM
T1 construct: Bought protein; also called hDLL4; rHuman DLL4
Protocol: (§1) The plate was blocked by adding 1% BSA in Tris-buffered Saline Tween (TBST) and incubating for 1 hour at room temperature followed by washing 2 times with 150 μl TBST. A Fab antibody was serially diluted in 1% BSA in PBS. A 50 μl aliquot of each serial dilution was added, in triplicate, to each well and the plate was incubated for 1 hour at room temperature followed by washing 2 times with TBST. 50 μl of either goat anti-human kappa HRP conjugated secondary antibody (Cat # A7164-1 mL, Sigma-Aldrich) or goat anti-human lambda HRP conjugated secondary antibody (Cat # L1645-1 ml, Sigma-Aldrich), diluted 1:1000 in 1% BSA in PBS, was added to each well and the plate was incubated for 30 minutes at room temperature followed by washing 3 times with 200 μl TBST. Finally, 50 μl TMB one-component reagent (Cat # TMBW-1000-01, BioFax) was added and allowed to develop for 2 minutes at room temperature. The reaction was immediately halted by the addition of 50 μl 0.5M H₂SO₄ and the absorbance at 450 nm was measured using an ELISA plate reader.

[2] = target: T1, recombinant human DLL4 (Cat# …); experiment: ELISA, DLL4 coated, Fab 50 nM
Protocol: (§2) In this example, an ELISA binding assay was used to assess the dose-dependent binding of Fab antibodies to recombinant human DLL4 and recombinant mouse DLL4.
as §1

[3] = target: T1, recombinant human DLL4 (Cat# …); experiment: ELISA, DLL4 coated, Fab 100 nM
Protocol: as §2, §1

[4] = target: T1, recombinant human DLL4 (Cat# …); experiment: ELISA, DLL4 coated, Fab 12.5 nM
Protocol: as §2, §1

[5] = target: T1, recombinant human DLL4 (Cat# …); experiment: SPR (ProteOn), hDLL4 amine-coupled on chip
Protocol: In this example, the binding affinities of selected anti-DLL4 Fabs to recombinant human DLL4 (hDLL4, Cat# 1506-D4/CF, R&D Systems) were analyzed using Surface Plasmon Resonance (SPR) (Biosensor Tools, Salt Lake City, Utah). The Fabs analyzed include germline-derived antibodies and germline-modified DLL4 antibodies. Recombinant hDLL4 was immobilized on a SPR chip using amine coupling at three different surface densities. The Fabs were serially diluted 3-fold, with an initial concentration of 1 μM. Binding studies were run on a ProteOn system using a GLM sensor chip in 10 mM HEPES, pH 7.4, 150 mM NaCl, 0.01% Tween-20, and 0.1 mg/ml BSA at 25° C. The response data from each surface was globally fit to determine the binding constants.

Row | Binder | ELISA absorbance at 450 nm [1] | ELISA absorbance at 450 nm [2] | ELISA absorbance at 450 nm [3] | ELISA absorbance at 450 nm [4] | Kd [5] | koff [5] | kon [5]
1 | Fab VH5-51_IGHD5-18*01>3_IGHJ4*01 G100K/G104T G24T/S28R/G35V & V3-4_IGLJ1*01 V91L/S96P S52V (Fab, V domains shown, Fab made in E. coli: VH on CH1 with His6 and Flag tags (Plasmid A), VL on lambda CL (Plasmid E); also called H: KT TRV & L: LP S52V) VH: EVQLVQSGAEVKKPGESLKISCKTSGYRFTSYWIVWVRQMPGKGLEWMGIIYPGDSDTRYSPSFQGQVTISADKSISTAYLQWSSLKASDTAMYYCARRKYSYTYDYFDYWGQGTLVTVSS VL: QTVVTQEPSFSVSPGGTVTLTCGLSSGSVSTSYYPSWYQQTPGQAPRTLIYVTNTRSSGVPDRFSGSILGNKAALTITGAQADDESDYYCLLYMGPGISYVFGTGTKVTVL | 0.6 A450 | 0.74 A450 | 0.95 A450 | 0.43 A450 |  |  | 
2 | Fab VH5-51_IGHD5-18*01>3_IGHJ4*01 G100K/G104T G24T/S28R/G35V & V3-4_IGLJ1*01 V91L/S96P S52T (Fab, V domains shown, Fab made in E. coli: VH on CH1 with His6 and Flag tags (Plasmid A), VL on lambda CL (Plasmid E); also called H: KT TRV & L: LP S52T) VH: EVQLVQSGAEVKKPGESLKISCKTSGYRFTSYWIVWVRQMPGKGLEWMGIIYPGDSDTRYSPSFQGQVTISADKSISTAYLQWSSLKASDTAMYYCARRKYSYTYDYFDYWGQGTLVTVSS VL: QTVVTQEPSFSVSPGGTVTLTCGLSSGSVSTSYYPSWYQQTPGQAPRTLIYTTNTRSSGVPDRFSGSILGNKAALTITGAQADDESDYYCLLYMGPGISYVFGTGTKVTVL | 0.62 A450 | 0.79 A450 | 0.99 A450 | 0.41 A450 |  |  | 
3 | Fab VH5-51_IGHD5-18*01>3_IGHJ4*01 G100K/G104T G24T/S28R/G35V & V3-4_IGLJ1*01 V91L/S96P S52K (Fab, V domains shown, Fab made in E. coli: VH on CH1 with His6 and Flag tags (Plasmid A), VL on lambda CL (Plasmid E); also called H: KT TRV & L: LP S52K) VH: EVQLVQSGAEVKKPGESLKISCKTSGYRFTSYWIVWVRQMPGKGLEWMGIIYPGDSDTRYSPSFQGQVTISADKSISTAYLQWSSLKASDTAMYYCARRKYSYTYDYFDYWGQGTLVTVSS VL: QTVVTQEPSFSVSPGGTVTLTCGLSSGSVSTSYYPSWYQQTPGQAPRTLIYKTNTRSSGVPDRFSGSILGNKAALTITGAQADDESDYYCLLYMGPGISYVFGTGTKVTVL | 0.79 A450 | 1.03 A450 | 1.23 A450 | 0.56 A450 |  |  | 
4 | Fab VH5-51_IGHD5-18*01>3_IGHJ4*01 G100K/G104T G24T/S28R/G35V & V3-4_IGLJ1*01 V91L/S96P S52N (Fab, V domains shown, Fab made in E. coli: VH on CH1 with His6 and Flag tags (Plasmid A), VL on lambda CL (Plasmid E); also called H: KT TRV & L: LP S52N) VH: EVQLVQSGAEVKKPGESLKISCKTSGYRFTSYWIVWVRQMPGKGLEWMGIIYPGDSDTRYSPSFQGQVTISADKSISTAYLQWSSLKASDTAMYYCARRKYSYTYDYFDYWGQGTLVTVSS VL: QTVVTQEPSFSVSPGGTVTLTCGLSSGSVSTSYYPSWYQQTPGQAPRTLIYNTNTRSSGVPDRFSGSILGNKAALTITGAQADDESDYYCLLYMGPGISYVFGTGTKVTVL | 0.86 A450 | 0.9 A450 | 1.05 A450 | 0.65 A450 |  |  | 
5 | Fab VH5-51_IGHD5-18*01>3_IGHJ4*01 G100K/G104T G24T/S28R/G35V & V3-4_IGLJ1*01 V91L/S96P S52L (Fab, V domains shown, Fab made in E. coli: VH on CH1 with His6 and Flag tags (Plasmid A), VL on lambda CL (Plasmid E); also called H: KT TRV & L: LP S52L) VH: EVQLVQSGAEVKKPGESLKISCKTSGYRFTSYWIVWVRQMPGKGLEWMGIIYPGDSDTRYSPSFQGQVTISADKSISTAYLQWSSLKASDTAMYYCARRKYSYTYDYFDYWGQGTLVTVSS VL: QTVVTQEPSFSVSPGGTVTLTCGLSSGSVSTSYYPSWYQQTPGQAPRTLIYLTNTRSSGVPDRFSGSILGNKAALTITGAQADDESDYYCLLYMGPGISYVFGTGTKVTVL | 0.58 A450 | 0.78 A450 | 1.02 A450 | 0.43 A450 |  |  | 

Now from value to binder:

Row | ELISA absorbance at 450 nm [1] | ELISA absorbance at 450 nm [2] | ELISA absorbance at 450 nm [3] | ELISA absorbance at 450 nm [4] | Kd [5] | koff [5] | kon [5] | Binder
6 | 0.67 A450 | 0.81 A450 | 0.96 A450 | 0.47 A450 |  |  |  | Fab VH5-51_IGHD5-18*01>3_IGHJ4*01 G100K/G104T G24T/S28R/G35V & V3-4_IGLJ1*01 V91L/S96P S52Q (Fab, V domains shown, Fab made in E. coli: VH on CH1 with His6 and Flag tags (Plasmid A), VL on lambda CL (Plasmid E); also called H: KT TRV & L: LP S52Q) VH: EVQLVQSGAEVKKPGESLKISCKTSGYRFTSYWIVWVRQMPGKGLEWMGIIYPGDSDTRYSPSFQGQVTISADKSISTAYLQWSSLKASDTAMYYCARRKYSYTYDYFDYWGQGTLVTVSS VL: QTVVTQEPSFSVSPGGTVTLTCGLSSGSVSTSYYPSWYQQTPGQAPRTLIYQTNTRSSGVPDRFSGSILGNKAALTITGAQADDESDYYCLLYMGPGISYVFGTGTKVTVL
7 |  |  |  |  | 32.7 nM | 0.0101 s⁻¹ | 351000 M⁻¹ s⁻¹ | Fab VH1-46_IGHD6-6*01_IGHJ1*01 S102A/S103P/S104F/H111F G56H & L6_IGKJ1*01 (Fab, V domains shown, Fab made in E. coli: VH on CH1 with His6 and Flag tags (Plasmid A), VL on kappa CL (Plasmid C); also called H: APFF G56H & L: wt) VH: QVQLVQSGAEVKKPGASVKVSCKASGYTFTSYYMHWVRQAPGQGLEWMGIINPSGHSTSYAQKFQGRVTMTRDTSTSTVYMELSSLRSEDTAVYYCAREEYAPFSAEYFQFWGQGTLVTVSS VL: not shown
